Literature values, collected in paper PMC5035964.

How the values were obtained:
[1] = target: SLAMF1 (Homo sapiens) (UniProt Q13291)
[2] = target: Nectin-4 (Homo sapiens) (UniProt Q96NY8)
[3] = target: CD46 (Homo sapiens) (UniProt P15529)
UniProt P15529, sequence (P15529 35-392): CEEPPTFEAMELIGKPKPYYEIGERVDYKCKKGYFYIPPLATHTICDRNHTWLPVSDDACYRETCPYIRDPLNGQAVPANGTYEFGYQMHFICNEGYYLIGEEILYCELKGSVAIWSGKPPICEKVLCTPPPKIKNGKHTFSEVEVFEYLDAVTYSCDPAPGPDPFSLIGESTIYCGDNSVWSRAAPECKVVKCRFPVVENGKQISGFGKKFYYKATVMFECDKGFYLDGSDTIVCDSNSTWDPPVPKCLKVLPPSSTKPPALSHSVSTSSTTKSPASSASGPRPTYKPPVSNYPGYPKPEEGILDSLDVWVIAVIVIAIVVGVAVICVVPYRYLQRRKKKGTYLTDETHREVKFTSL

UniProt Q13291, sequence (Q13291 21-335): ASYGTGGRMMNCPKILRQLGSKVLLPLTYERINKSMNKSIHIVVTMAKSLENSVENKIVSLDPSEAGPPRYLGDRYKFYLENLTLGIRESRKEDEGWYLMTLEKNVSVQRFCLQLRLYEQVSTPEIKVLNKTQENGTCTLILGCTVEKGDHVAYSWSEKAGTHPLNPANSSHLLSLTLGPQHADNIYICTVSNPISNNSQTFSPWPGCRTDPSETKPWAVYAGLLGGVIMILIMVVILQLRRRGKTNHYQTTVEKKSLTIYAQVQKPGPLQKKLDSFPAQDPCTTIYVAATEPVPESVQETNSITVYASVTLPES
UniProt Q96NY8, sequence (Q96NY8 32-510): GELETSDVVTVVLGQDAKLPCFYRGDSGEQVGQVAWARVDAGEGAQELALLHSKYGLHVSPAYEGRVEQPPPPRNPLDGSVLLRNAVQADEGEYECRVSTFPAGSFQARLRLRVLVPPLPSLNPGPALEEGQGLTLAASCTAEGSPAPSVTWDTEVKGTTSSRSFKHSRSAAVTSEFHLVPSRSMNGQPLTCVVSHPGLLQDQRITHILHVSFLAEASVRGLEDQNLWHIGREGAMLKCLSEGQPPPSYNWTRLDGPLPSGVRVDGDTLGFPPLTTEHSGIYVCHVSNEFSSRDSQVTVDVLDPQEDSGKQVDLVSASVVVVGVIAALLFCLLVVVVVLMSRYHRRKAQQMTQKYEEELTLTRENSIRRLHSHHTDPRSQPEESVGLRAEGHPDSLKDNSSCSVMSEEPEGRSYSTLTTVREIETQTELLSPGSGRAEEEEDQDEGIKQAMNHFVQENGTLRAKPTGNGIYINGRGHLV

Row | Substance | Kd [1] [nM] | Kd [2] [nM] | Kd [3] [nM]
1 | Measles virus hemagglutinin (H) (from UniProt P08362) | 80 | 20 | –
2 | Measles virus hemagglutinin (H), Edmonston (from UniProt P08362) | – | – | 79
